Results on 167 variants are retold here after the RNAGym collection of RNA variant scans (doi:10.7554/elife.80360).

B1: HDV Ribozyme (parent)
chain: GGCCGGCAUGGUCCCAGCCUCCUCGCUGGCGCCGGCUGGGCAACAUUCCGAGGGGACCGUCCCCUCGGUAAUGGCGAAUGGGACCCA

In this series the parent is B1. Nature of the series: self-cleavage, relative activity (ratio to wild type); higher = more cleavage; co-transcriptional.
As for A8G C15G, the self-cleavage stood at 0.262.
For A8G C15A the value was 0.554; for A8G C15U, 0.7; for A8G C75G, 0.525.
Consider A8G C75U, for which the self-cleavage was 0.133.
Under A8U A16C stands 0.831; under A8U A70C, 0.692; under A8U U69G, 0.59.
Under A8U G28U stands 0.131; under A8U G28C, 0.166; under U9A C24A, 0.914.
For U9A C24U, the self-cleavage is 0.449.
Under U9A C24G stands 0.111; under U9A A56U, 0.867.
For A8G U46C the value was 0.782.
Under A8G C63A stands 1.22.
As to A8G C63G, the self-cleavage was determined as 1.11.
Under A8C U79G stands 0.462; under A8C U79C, 0.181.
Take A8C G67C: the self-cleavage came out at 0.623.
For A8C G67U, the self-cleavage was found to be 0.739.
Under U9A A83G stands 0.67.
As to U9A A83U, the self-cleavage is 0.643.
Consider U9A C15G, for which the self-cleavage came to 0.499.
As for U9A C15U, the self-cleavage stood at 1.02.
Under U9A C19A stands 0.194; under A8G G73A, 0.369.
For A8G C26A the value was 1.11.
For A8G C26U the value was 1.16; for U9A A70C, 0.767.
With U9A A70U, the self-cleavage stood at 0.997.
For A8G G31U, the self-cleavage worked out at 0.587.
For A8G G31A the value was 0.415; for A8G G31C, 0.145; for A8G C13A, 0.175.
For A8U G50C the value was 0.939.
As for A8U G50U, the self-cleavage came to 0.848.
For A8U C58U the value was 1.15; for A8U C58A, 0.862; for A8G U23A, 0.9.
On to A8G U23G, for which the self-cleavage was 0.776.
For the variant A8U A77C, the self-cleavage worked out at 0.0665.
Under A8U A77U stands 0.0898; under A8U A77G, 0.779.
For A8G C30G the value was 0.128; for A8G C30A, 0.237; for A8G C30U, 0.806.
For A8G G76C the value was 1.13; for A8G G54A, 0.877.
In the case of A8G G54C, the self-cleavage amounted to 1.07.
On to A8U U23G, for which the self-cleavage was found to be 0.415.
For U9A A16G the value was 1.37.
Under U9A A16C stands 0.712; under A8U G67C, 0.718; under A8C U20C, 0.
For A8G G52U the value was 0.849; for A8C G80A, 0.326.
As for A8C G80U, the self-cleavage came to 0.07.
For A8U G35A the value was 0.426.
For A8U G11A the value was 0.151.
For the variant A8G A78U, the self-cleavage is 0.266.
Under A8G A78C stands 0.166; under A8U G55A, 0.749.
For A8U G55U the value was 0.635; for U9A C14G, 0.604; for U9A C14U, 1.11.
Regarding U9A A87U, the self-cleavage was found to be 1.03.
For U9A A87G the value was 1.13.
Under U9A A87C stands 1.04; under U9A C57U, 1.19.
With U9A C57A, the self-cleavage stood at 1.02.
For A8G A87U the value was 0.991; for A8G G53A, 1.04.
Under A8G G53U stands 1.02; under U9A A45G, 0.733.
Under U9A A45C stands 0.723; under U9A A45U, 0.719.
As for A8U C24A, the self-cleavage is 0.208.
For A8U C24U the value was 0.787; for A8G G40U, 0.554.
For A8G G40C the value was 0.369.
Take A8U A42U: the self-cleavage was determined as 0.314.
For A8G U20C the value was 0.217.
As to A8C U47A, the self-cleavage is 0.519.
Under A8G G17C stands 0.0519; under A8G G17A, 0.629; under A8G U27A, 0.867.
Regarding A8G U27C, the self-cleavage was determined as 0.791.
Under A8C U65G stands 0.985; under A8C U65C, 0.684; under A8C U65A, 0.76.
Under A8U C36G stands 0.125; under A8U C36A, 0.0811; under A8U C36U, 0.554.
For A8U C44U the value was 0.415.
As to A8U C44A, the self-cleavage came out at 0.449.
Under A8U C44G stands 0.731; under A8U G54U, 0.574; under A8U G54A, 0.831.
Under A8G A43U stands 0.519.
For A8G A43G the value was 0.415; for A8G A43C, 0.145.
On to U9A A51U, for which the self-cleavage was 0.914.
For U9A A51G the value was 0.59; for A8G G55C, 0.982.
For A8G G55U the value was 0.804; for A8G G29C, 0; for A8G G29A, 0.
For A8G G74C the value was 0.0639.
In the case of A8G G74A, the self-cleavage stood at 0.256.
For A8G C57G the value was 1.27; for A8G C57U, 1.16; for A8G A56G, 0.719.
For A8G C84G the value was 0.396.
Regarding A8G C84U, the self-cleavage is 0.864.
Under A8G C66G stands 0.969.
For A8G C66A the value was 0.886; for A8U A78U, 0.128.
For A8U A78G the value was 0.388; for U9A C48A, 1.01.
In the case of U9A C48U, the self-cleavage came out at 0.914.
Under A8G A83C stands 0.262; under A8G A83G, 0.88.
For A8U C21G the value was 0.119.
As for A8U C21U, the self-cleavage came out at 0.147.
Regarding A8G G81A, the self-cleavage turned out to be 0.0875.
In the case of A8G A51C, the self-cleavage was found to be 0.962.
Take A8G A51U: the self-cleavage was found to be 1.06.
With A8U C63A, the self-cleavage is 0.415.
Under A8G G34A stands 0.095; under A8G G34U, 0.429.
Under A8G G34C stands 0.0573.
For A8U G68U the value was 0.858.
For the variant A8U G68C, the self-cleavage came out at 0.752.
As for A8G C64A, the self-cleavage amounted to 0.764.
As to A8U G59C, the self-cleavage amounted to 1.02.
For A8U G59A the value was 0.79; for A8G C85U, 1.06; for U9A C44G, 0.914.
For U9A C44A the value was 0.831; for U9A C44U, 0.95; for A8G G10U, 0.431.
On to A8G U65C, for which the self-cleavage stood at 1.05.
Under A8U C19U stands 0.0308.
Take A8C U37G: the self-cleavage worked out at 0.166.
For U9A A77U the value was 0.506.
Under U9A A77C stands 0.383; under U9A C13A, 0.119; under U9A C13U, 1.36.
For A8G G25A the value was 0.0639.
With A8G G25C, the self-cleavage was found to be 0.175.
For U9A C21A the value was 0.0739; for U9A C21G, 0.0462; for A8C U23G, 0.332.
Consider A8C U60A, for which the self-cleavage is 0.831.
Under A8C U60C stands 0.489; under A8U U27A, 0.578; under A8U U27C, 0.196.
Under A8C U46G stands 0.554; under A8C U46C, 0.615; under A8U C41A, 0.443.
Regarding A8G U69G, the self-cleavage is 1.19.
Under A8G U69C stands 1.16; under U9A C26G, 0.623; under U9A C26A, 0.76.
For U9A C32U the value was 0.911; for U9A C32A, 0.0898.
